In doi:10.1101/2025.02.26.640323, “Aggregation-Dependent Epitope Sequence and Modification Fingerprints of Anti-Aβ Antibodies” (bioRxiv, 2025):
Entries after “also recorded” stand apart in the source; their conditions may differ.

What was measured:
[1] = test system: synthetic Aβ peptide variants; assay: Capillary isoelectric focusing (CIEF) immunoassay; type: binding
Method: Automated capillary isoelectric focusing immunoassays were performed with a Peggy-Sue system (ProteinSimple,San Jose, California, USA), essentially as previously described and [53].
In brief, synthetic Aβ peptide variants were separated by isoelectric focusing in microcapillaries followed by photochemical immobilization to the inner capillary walls and probing with the primary antibodies for 120 min. After 2 washes, the horseradish peroxidase conjugated secondary antibodies were loaded and incubated for 60 min. After two washing steps, a luminol/peroxide mix was loaded, and chemiluminescent signals were recorded. The data was analyzed with the Compass for SW software. The following secondary antibodies were used: Anti-human IgG Secondary HRP antibody (Protein Simple, catalog number 043–491), Goat-Anti-Mouse-HRP Secondary Antibody ProteinSimple, catalog number 040–655) and Peroxidase-conjugated Affini Pure Donkey Anti-Human IgG (H+L) (1:100 dilution) (Jackson ImmunoResearch Laboratories Inc., West Grove, PA, code number 709–035-149).

[2] = test system: amyloid precursor protein (APP770) residues 649–722; assay: Peptide microarray epitope pre-screening (overlapping 15-mers); type: binding, human; conditions: 0.5–1 μg/mL antibody
Method: Information regarding binding epitopes and /or immunogens for most of the tested Aβ-Abs has been published and is summarized in Table 1. However, the binding epitope information was derived from varying methodologies. To provide an initial side-by-side comparison we pre-screened all of the listed Aβ-Abs in array format using copies of peptide libraries and standard antibody concentrations of 0.5–1 μg/mL (Figure 1a). The library comprised the amyloid precursor protein (APP770) residues 649–722, corresponding to the canonical Aβ1–42 amino acid sequence with additional 23 amino terminal and 9 carboxy terminal residues. […] For optimal signal to noise ratios and ideal selectivity profiles on the microarrays, the Aβ-Ab concentrations were adjusted for 3D6, 82E1, 11H3, 80C2 and 7H3D6 (Figure 1 – figure- supplement 1) and (Appendix 1–7). […] Specifically, Donanemabbs, 2–48 and Aβ-pE3 were raised against AβpE3-x (Table 1) and were expected to show preference for Aβ peptides starting with a pE(3).
Figure 1. Microarray workflow and Aβ-Ab epitope pre-screening. (a) Schematic of the microarray workflow. The library comprised the amyloid precursor protein (APP) residues 649–722 (APP770 numbering), corresponding to Aβ residues −23 to 51, as a library of 15-mer peptides overlapping by 14AAs, copied in dozens, and probed for Aβ-Abs binding followed by analysis in MARTin. (b) The epitope screening binding data are summarized as a heatmap. Blue and red shades indicate the relative binding strength of the related arrayed peptides to the left and cognate Aβ-Ab on top. The blue – red scale is visualizing the normalized binding intensity for each antibody individually. The applied antibody concentrations ranged between 0.5–1 μg/mL.
The μSPOT assay was performed as previously described. […] Peptide arrays were synthesized using MultiPep RSi robot (CEM GmbH, Kamp-Lintford, Germany) on cellulose discs containing Fmoc-β-Ala linkers. Natural amino acid building blocks were purchased from IRIS (IRIS Biotech GmbH, Marktredwitz, Germany). Special building blocks employed in this study such as isomers, stereoisomers, phosphorylation and pyroglutamination […] modifications are listed here: Fmoc-L-Ser(PO(OBzl)OH)-OH (Iris – FAA1423), L-Pyroglutamic acid pentachlorophenyl ester (Novabiochem - 8.54203), Fmoc-L-Asp-OtBu (Iris – FAA1356), Fmoc-D-Asp-OtBu (Carbosolutions – CC05095) and Fmoc-D-Asp(tBu)-OH (Iris – FAA1309). Synthesis was carried out by deprotecting the Fmoc-group using 20% piperidine in dimethylformamide (DMF). Peptide chains were elongated using a coupling solution consisting of amino acids (0.5M) with oxyma (1M) and DIC (1M) in DMF (1:1:1). Coupling steps were carried out 3 times (30min), followed by capping (4% acetic anhydride in DMF). Discs were transferred into 96 deep-well plates for the work-up.

Q: Which results are given for “Donanemabbs: humanized monoclonal, biosimilar of Donanemab, Proteogenix (#PX-TA1549)”?
A: signals with other N-terminal Aβ variants (CIEF and Bicine-Tris Western blot) [1]: no or very small signals; preference of Aβ variant (CIEF and Bicine-Tris Western blot) ([1]; AβpE3–40 vs Aβ3–40): clear preference for the Aβ variant starting with the cyclized N-terminal pE; also recorded: high preference for pyroglutamate bearing pEAβ3–40; Aβ variants detected on CIEF-immunoassay ([1]; Peggy Sue, chemiluminescence): detected AβpE3–40 and Aβ3–40; Array: epitope identified in this study on microarrays ([2]; Aβ residue numbers, 15-mer peptides overlapping by 14AAs on cellulose conjugates, chemiluminescence): 3–10; binding in epitope pre-screening ([2]; unmodified Aβ-related 15-mers, generic pre-screening conditions): detected Aβ(3-x) starting with non-cyclized Glu (3), Aβ(−3-x) as well as several other N-terminally elongated Aβ-related peptides and Aβ1-x; also recorded: clear signals with AβpE3-x and several other Aβ related peptides starting N-terminally of Glu(3), including Aβ1-x
